{"source": "paper PMC7292962", "about": "(Biochemistry, 2019)", "proteins": {"B1": {"name": "S100A12 (natural protein, human)", "chain": "TKLEEHLEGIVNIFHQYSVRKGHFDTLSKGELKQLLTKELANTIKNIKDKAVIDEIFQGLDANQDEQVDFQEFISLVAIALKAAHYHTHKE"}}, "experiment_in_all_cases": "AUC", "key": {"AUC [1]": {"biological_target": "the molecule itself"}, "AUC [2]": {"biological_target": "the molecule itself", "remark": "listed apart in the source"}, "AUC [3]": {"biological_target": "the molecule itself", "remark": "listed apart in the source"}, "AUC [4]": {"biological_target": "the molecule itself", "remark": "listed apart in the source"}}, "note": "Like-named read-outs stand apart in the source and are kept apart here."}
{"protein": "B1", "values": [{"measurement": "stoichiometry N", "setting": "AUC [1]", "value": 2}, {"measurement": "Kd", "setting": "AUC [2]", "value": 4.59, "unit": "mM"}, {"measurement": "Kd", "setting": "AUC [3]", "value": 56.7, "unit": "µM"}, {"measurement": "Kd", "setting": "AUC [4]", "value": 13.2, "unit": "µM"}]}
